Experimental data: US20240100159A1, “USE OF IL-7R-ALPHA-GAMMA AGONIST PEPTIDES IN CELL MANUFACTURING” (MEDIKINE, INC., priority 2022, published 2024)
Bridge positions count the residues as written; N and C are the ends. Ends that are not written are not given here.

T1: hu-IL-7Rγc subunit (human, UniProt P31785 23-262, limits assumed)
T1 construct: also called human Rγc subunit; common γc receptor
T1 sequence (looked up): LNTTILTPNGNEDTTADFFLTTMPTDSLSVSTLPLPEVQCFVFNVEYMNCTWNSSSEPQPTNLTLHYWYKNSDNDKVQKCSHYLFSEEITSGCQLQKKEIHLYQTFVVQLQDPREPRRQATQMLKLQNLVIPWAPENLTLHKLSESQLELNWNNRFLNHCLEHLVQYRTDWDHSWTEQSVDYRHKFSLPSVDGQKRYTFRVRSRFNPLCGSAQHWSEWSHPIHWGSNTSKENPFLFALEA

T2: hu-IL-7Rγc subunit (human), P31785
T2 chain: T1 sequence (looked up)

T3: hu-IL-7Rα subunit (human, UniProt P16871 21-239, limits assumed)
T3 construct: also called human interleukin-7 receptor subunit α; CD127
T3 sequence (looked up): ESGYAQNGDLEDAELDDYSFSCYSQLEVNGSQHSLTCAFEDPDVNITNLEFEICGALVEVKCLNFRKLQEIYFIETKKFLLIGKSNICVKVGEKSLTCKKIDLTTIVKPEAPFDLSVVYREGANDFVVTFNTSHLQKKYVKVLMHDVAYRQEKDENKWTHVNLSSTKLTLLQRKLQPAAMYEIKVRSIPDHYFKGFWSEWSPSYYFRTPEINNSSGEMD

T4: hu-IL-7Rα subunit (human), P16871
T4 chain: T3 sequence (looked up)

B1: SEQ ID NO 301 (peptide)
peptide: KPVVVCEEWQGVELCWLEIQ
modifications: not fully specified (bridges); cysteine pairing not given here
notes: also called Rγc ligand
B2: SEQ ID NO 302 (peptide)
peptide: VVCEVFQGVELCWCENEEFT
modifications: not fully specified (bridges); cysteine pairing not given here
notes: also called Rγc ligand
B3: SEQ ID NO 307 (peptide)
peptide: VTCQEYEGVELCWTVGCAYS
modifications: not fully specified (bridges); cysteine pairing not given here
notes: also called Rγc ligand
B4: SEQ ID NO 273 (peptide)
peptide: EGSTTTIECEEWAGVELCWL
modifications: not fully specified (bridges); cysteine pairing not given here
notes: also called Rγc ligand
B5: SEQ ID NO 275 (peptide)
peptide: RSDDEVVVCQEWEGVELCWQ
modifications: not fully specified (bridges); cysteine pairing not given here
notes: also called Rγc ligand
B6: SEQ ID NO 283 (peptide)
peptide: VVCQEWEGVELCWYAGECMQ
modifications: not fully specified (bridges); cysteine pairing not given here
notes: also called Rγc ligand
B7: SEQ ID NO 276 (peptide)
peptide: IECEEWAGVELCWL
modifications: not fully specified (bridges); cysteine pairing not given here
notes: also called Rγc ligand
B8: SEQ ID NO 295 (peptide)
peptide: VVCQEWEGVELCWVEPPLLP
modifications: not fully specified (bridges); cysteine pairing not given here
notes: also called Rγc ligand
B9: SEQ ID NO 298 (peptide)
peptide: KTTVACQDWGGVELCWVERV
modifications: not fully specified (bridges); cysteine pairing not given here
notes: also called Rγc ligand
B10: SEQ ID NO 279 (peptide)
peptide: FAHHGVVECQEWYGVELCWQ
modifications: not fully specified (bridges); cysteine pairing not given here
notes: also called Rγc ligand
B11: SEQ ID NO 270 (peptide)
peptide: VVCQEWEGVELCWC
modifications: not fully specified (bridges); cysteine pairing not given here
notes: also called Rγc ligand
B12: SEQ ID NO 284 (peptide)
peptide: ILCQEFEGVELCWLEESLAE
modifications: not fully specified (bridges); cysteine pairing not given here
notes: also called Rγc ligand
B13: SEQ ID NO 293 (peptide)
peptide: KLTVECQDWDGVELCWVGVE
modifications: not fully specified (bridges); cysteine pairing not given here
notes: also called Rγc ligand
B14: SEQ ID NO 268 (peptide)
peptide: RLLNSVVECLDWEGVELCWQ
modifications: not fully specified (bridges); cysteine pairing not given here
notes: also called Rγc ligand
B15: SEQ ID NO 281 (peptide)
peptide: WSKKAEVVCEEWGGVEFCWI
modifications: not fully specified (bridges); cysteine pairing not given here
notes: also called Rγc ligand
B16: SEQ ID NO 282 (peptide)
peptide: RSNQTVVECQDWEGVELCWQ
modifications: not fully specified (bridges); cysteine pairing not given here
notes: also called Rγc ligand
B17: SEQ ID NO 317 (peptide)
peptide: KKIVVCQDWGGVELCWTEDD
modifications: not fully specified (bridges); cysteine pairing not given here
notes: also called Rγc ligand
B18: SEQ ID NO 261 (peptide)
peptide: VVCQDWEGVELCWQ
modifications: not checked
B19: SEQ ID NO 113 (peptide)
peptide: VPWCMLDPGSMQCAWL
notes: also called IL-7Rα ligand
B20: SEQ ID NO 102 (peptide)
peptide: HLGVPWCTLDPGSIQCAWLAKH
notes: also called IL-7Rα ligand
B21: SEQ ID NO 116 (peptide)
peptide: GWGIPWCTLDPGSLQCAWLGKH
notes: also called IL-7Rα ligand
B22: SEQ ID NO 101 (peptide)
peptide: HCKHWDLESLLLCV
notes: also called IL-7Rα ligand
B23: SEQ ID NO 104 (peptide)
peptide: IPWCLLDPGGLQCVWL
notes: also called IL-7Rα ligand
B24: SEQ ID NO 114 (peptide)
peptide: VHRIPWCTLDPGGLQCAWLRQM
notes: also called IL-7Rα ligand
B25: SEQ ID NO 117 (peptide)
peptide: YRSGHGIPWCMLDPGGLQCSWL
notes: also called IL-7Rα ligand
B26: SEQ ID NO 110 (peptide)
peptide: RHFDDIIPWCTLDPGSLQCAYL
notes: also called IL-7Rα ligand
B27: SEQ ID NO 115 (peptide)
peptide: WVTIPWCILDPGSLQCEWQTKV
notes: also called IL-7Rα ligand
B28: SEQ ID NO 106 (peptide)
peptide: NPFRSVVPWCALDPGSLQCAWL
notes: also called IL-7Rα ligand
B29: SEQ ID NO 111 (peptide)
peptide: SAKVLKQCLHWDLESLLSCL
notes: also called IL-7Rα ligand
B30: SEQ ID NO 103 (peptide)
peptide: IRSCLWQPGALHCTWWAEEEPV
notes: also called IL-7Rα ligand
B31: SEQ ID NO 109 (peptide)
peptide: QCVHWDLDTLFGCIREQLEL
notes: also called IL-7Rα ligand
B32: SEQ ID NO 100 (peptide)
peptide: HCLHWNIETLMSCVYGNFEE
notes: also called IL-7Rα ligand
B33: SEQ ID NO 107 (peptide)
peptide: QCIHWDIETLLSCV
notes: also called IL-7Rα ligand
B34: SEQ ID NO 108 (peptide)
peptide: QCIHWDLESLLNCLRELKEP
notes: also called IL-7Rα ligand
B35: SEQ ID NO 105 (peptide)
peptide: KAGSWFIPWCTLDPGSLQCAFL
notes: also called IL-7Rα ligand
B36: SEQ ID NO 327 (peptide)
peptide: GGVVCQDWEGVELCWQGG
modifications: disulfide 5-14 (inferred)
notes: also called Rγc ligand
B37: SEQ ID NO 326 (peptide)
peptide: GGVVCQDWEGVELCWQ
modifications: not checked
B38: SEQ ID NO 325 (peptide)
peptide: VVCQDWEGVELCWQGG
modifications: not checked
B39: SEQ ID NO 455 (peptide)
peptide: QCIHWDIETLLSCV
notes: also called IL-7Rα ligand
B40: SEQ ID NO 459 (peptide)
peptide: GGVPWCTLDPGSLQCAWF
modifications: not fully specified (bridges); cysteine pairing not given here
notes: also called IL-7Rα ligand
B41: SEQ ID NO 458 (peptide)
peptide: QCVHWDLDTLFGCIREQLEL
notes: also called IL-7Rα ligand
B42: SEQ ID NO 464 (peptide)
peptide: CPSMLQGPERTWVC
notes: also called Rγc ligand
B43: SEQ ID NO 462 (peptide)
peptide: RTCTEWENVVLCWV
notes: also called Rγc ligand
B44: SEQ ID NO 463 (peptide)
peptide: MCWLEWGEWVGSCL
notes: also called Rγc ligand
B45: SEQ ID NO 457 (peptide)
peptide: YMACSSGLSLCRLS
modifications: not checked
B46: SEQ ID NO 456 (peptide)
peptide: VYCAEIGEYRVCRQ
modifications: not checked
B47: SEQ ID NO 461 (peptide)
peptide: KVCEMWGGVLLCWN
modifications: not checked

target: T1, hu-IL-7Rγc subunit; experiment: not given

IC50 [µM] | Binder
< 100 | B1
< 100 | B2
< 100 | B3
< 100 | B4
< 100 | B5
< 100 | B6
< 100 | B7
< 100 | B8
< 100 | B9
< 100 | B10
< 100 | B11
< 100 | B12
< 100 | B13
< 100 | B14
< 100 | B15
< 100 | B16
< 100 | B17

Target: T2, hu-IL-7Rγc subunit (human), P31785
Experiment: not given

IC50 [µM] | Binder
< 100 | B18

target: T3, hu-IL-7Rα subunit; experiment: phage ELISA competition assay

IC50 [µM] | Binder
< 10 | B19
< 10 | B20
< 10 | B21
< 10 | B22
< 10 | B23
< 10 | B24
< 10 | B25
< 10 | B26
< 10 | B27
< 10 | B28
< 10 | B29
< 10 | B30
< 10 | B31
< 10 | B32
< 10 | B33
< 10 | B34
< 10 | B35

target: T1, hu-IL-7Rγc subunit; experiment: phage ELISA competition assay

IC50 [µM] | Binder
< 100 | B36

Target: T2, hu-IL-7Rγc subunit (human), P31785
Experiment: phage ELISA competition assay

IC50 [µM] | Binder
< 100 | B37
< 100 | B18
< 100 | B38

target: T3, hu-IL-7Rα subunit; experiment: not stated; binding to a unique binding site on the IL-7Rα subunit

IC50 [µM] | Binder
< 10 | B39
< 10 | B40
< 10 | B41

target: T1, hu-IL-7Rγc subunit; experiment: not stated; binding to the specific binding site on the IL-7Rγc subunit

IC50 [µM] | Binder
< 10 | B42
< 10 | B43
< 10 | B44

Target: T4, hu-IL-7Rα subunit (human), P16871
Experiment: not stated; binding to a unique binding site on the IL-7Rα subunit

IC50 [µM] | Binder
< 10 | B45
< 10 | B46

Target: T2, hu-IL-7Rγc subunit (human), P31785
Experiment: not stated; binding to the specific binding site on the IL-7Rγc subunit

IC50 [µM] | Binder
< 10 | B47
